Data published in paper PMC11772769, “Selective cargo and membrane recognition by SNX17 regulates its interaction with Retriever” (EMBO Reports, 2024).

B1: unnamed (parent)
chain 1: MHFSIPETESRSGDSGGSAYVAYNIHVNGVLHCRVRYSQLLGLHEQLRKEYGANVLPAFPPKKLFSLTPAEVEQRREQLEKYMQAVRQDPLLGSSETFNSFLRRAQQETQQVPTEEVSLEVLLSNGQKVLVNVLTSDQTEDVLEAVAAKLDLPDDLIGYFSLFLVREKEDGAFSFVRKLQEFELPYVSVTSLRSQEYKIVLRKSYWDSAYDDDVMENRVGLNLLYAQTVSDIERGWILVTKEQHRQLKSLQEKVSKKEFLRLAQTLRHYGYLRFDACVADFPEKDCPVVVSAGNSELSLQLRLPGQQLREGSFRVTRMRCWRVTSSVPLPSGSTSSPGRGRGEVRLELAFEYLMSKDRLQWVTITSPQAIMMSICLQSMVDELMVKKSGGSIRKMLRRRVGGTLRRSDSQQAVKSPPLLESPDATRESMVKLSSKLSAVSLRGIGSPSTDASASDVHGNFAFEGIGDEDL
chain 2: not shown

Variants of: B1
Experiment: fluorescence anisotropy
Conditions: with partner chain of the complex shown; 5-FAM-labeled L2 14-mer peptide

Variant | Kd [µM]
chain 1 H457A | 1.1
chain 1 W321A | 76
